Drawing on paper PMC3472097 (Structure (London, England : 1993), 2012), this text covers Kd for three molecules.

The assay deals with protein phosphatase 1 alpha (PP1α), residues 7-330, recombinant (UniProt P62136 7-330). In words: ITC.

Broadly, the Kd is the equilibrium constant for the complex coming apart.

protein phosphatase 1 alpha (PP1α), residues 7-330, recombinant, sequence (P62136 7-330): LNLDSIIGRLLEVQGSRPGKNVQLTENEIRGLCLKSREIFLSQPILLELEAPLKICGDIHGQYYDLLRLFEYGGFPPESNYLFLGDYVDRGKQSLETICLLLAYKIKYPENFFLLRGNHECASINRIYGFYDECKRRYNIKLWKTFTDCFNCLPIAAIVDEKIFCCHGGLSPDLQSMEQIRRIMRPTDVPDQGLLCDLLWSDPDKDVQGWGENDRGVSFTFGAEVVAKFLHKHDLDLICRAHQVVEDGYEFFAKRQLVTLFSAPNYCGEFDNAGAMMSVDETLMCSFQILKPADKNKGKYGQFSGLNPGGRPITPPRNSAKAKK

B1: nuclear inhibitor of PP1 (NIPP1), residues 1-225 (FHA domain and PP1-binding domain) (domain or fragment, UniProt Q12972 1-225, looked up)
chain: MAAAANSGSSLPLFDCPTWAGKPPPGLHLDVVKGDKLIEKLIIDEKKYYLFGRNPDLCDFTIDHQSCSRVHAALVYHKHLKRVFLIDLNSTHGTFLGHIRLEPHKPQQIPIDSTVSFGASTRAYTLREKPQTLPSAVKGDEKMGGEDDELKGLLGLPEEETELDNLTEFNTAHNKRISTLTIEEGNLDIQRPKRKRKNSRVTFSEDDEIINPEDVDPSVGRFRNM
Turning to B1, the Kd is 17.8 nM.

B2: NIPP1 PP1-binding domain, residues 158-216 (domain or fragment, UniProt Q12972 158-216, looked up)
chain: EEETELDNLTEFNTAHNKRISTLTIEEGNLDIQRPKRKRKNSRVTFSEDDEIINPEDVD
Turning to B2, the Kd was 104 nM.

B3: NIPP1 PP1-binding domain, residues 144-225 (domain or fragment, UniProt Q12972 144-225, looked up)
chain: GGEDDELKGLLGLPEEETELDNLTEFNTAHNKRISTLTIEEGNLDIQRPKRKRKNSRVTFSEDDEIINPEDVDPSVGRFRNM
Consider B3, for which the Kd was 73 nM.
